# Test results from patent US20260176358A1 (JIANGSU HENGRUI PHARMACEUTICALS, published 2026).
# T1: rat CGRP (rat, UniProt P01256 83-119)
# T1 peptide (looked up): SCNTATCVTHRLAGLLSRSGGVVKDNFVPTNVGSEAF
# T2: human CGRP (human, UniProt P06881 83-119)
# T2 peptide (looked up): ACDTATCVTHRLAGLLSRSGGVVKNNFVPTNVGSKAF
# Experiments:
# rat CGRP = target: T1, rat CGRP; assay: ELISA, coated CGRP
# Method: (§1) In this test example, the abilities of the chimeric antibodies and humanized antibodies of C1 #, C9 #, C21 #, and C28 #to bind to human CGRP and rat CGRP were assessed using ELISAs. Plates were coated with […] human CGRP and rat CGRP, respectively, and blocked, and the antibodies, serially diluted, were then added. The plates were incubated for 1 h and washed, and a horseradish peroxidase-labeled anti-human Fc secondary antibody was then added. After incubation, color development was performed. […] The plates were incubated for 1 h and washed, and the antibodies, serially diluted, were then added. The plates were incubated for 1 h and washed, and a horseradish peroxidase-labeled streptavidin secondary antibody was then added. After incubation, color development was performed.
# human CGRP = target: T2, human CGRP; assay: ELISA, coated CGRP
# Method: as §1
Binder,EC50 (rat CGRP),EC50 (human CGRP)
"C21H2L2 (antibody, human IgG1, kappa, V domains shown) VH: EVQLVQSGAEVKKPGASVKVSCKASGYTFTDYYMNWVRQAPGQRLEWIGDINPNQGGTNYNQKFKGRATLTVDKSASTAYMELSSLRSEDTAVYYCASIIIVPNYFDYWGQGTTVTVSS VL: DIQMTQSPSSLSASVGDRVTITCKASQNVDTNVAWFQQKPGKSPKALIYSASYRYSGVPSRFSGSGSGTDFTLTISSLQPEDFATYYCQQYNNYPYTFGGGTKVEIKR",9.27 nM,3.4 nM
"C28H3L1 (antibody, human IgG1, kappa, V domains shown) VH: EVQLVQSGAEVKKPGASVKVSCKASGYTFTDYYMNWVRQAPGQRLEWMGDINPNQGVTTYNQKFKGRVTITVDKSASTAYMELSSLRSEDTAVYYCASIIIVPDYFDYWGQGTTVTVSS VL: DIQMTQSPSSVSASVGDRVTITCKASQNVGSNVAWYQQKPGKSPKALIYSASYRYSGVPSRFSGSGSGTDFTLTISSLQPEDFATYYCQQYNSYPYTFGGGTKVEIKR",3.97 nM,1.65 nM
"C28H5L1 (antibody, human IgG1, kappa, V domains shown) VH: EVQLVQSGAEVKKPGASVKVSCKASGYTFTDYYMNWVRQAPGQRLEWIGDINPNSGVTTYNQKFKGRATLTVDKSASTAYMELSSLRSEDTAVYYCASIIIVPDYFDYWGQGTTVTVSS VL: DIQMTQSPSSVSASVGDRVTITCKASQNVGSNVAWYQQKPGKSPKALIYSASYRYSGVPSRFSGSGSGTDFTLTISSLQPEDFATYYCQQYNSYPYTFGGGTKVEIKR",3.72 nM,1.58 nM
"C1H1L1 (antibody, human IgG1, kappa, V domains shown) VH: EVQLVQSGAEVKKPGSSVKVSCKASGYTFSTSWMNWVRQAPGQGLEWMGQIYPGDGYTNYSGKFRGRVTITADKSTSTAYMELSSLRSEDTAVYYCAGDYEALWGQGTTVTVSS VL: DIVMTQTPLSLPVTPGEPASISCRSSQSLVHSNGNTYFHWYLQKPGQSPQLLIYEVSNRFSGVPDRFSGSGSGTDFTLKISRVEAEDVGVYYCSQSTHVPFTFGQGTKLEIKR",3.1 nM,1.83 nM
"C1H1L2 (antibody, human IgG1, kappa, V domains shown) VH: EVQLVQSGAEVKKPGSSVKVSCKASGYTFSTSWMNWVRQAPGQGLEWMGQIYPGDGYTNYSGKFRGRVTITADKSTSTAYMELSSLRSEDTAVYYCAGDYEALWGQGTTVTVSS VL: DIVMTQTPLSLPVTPGEPASISCRSSQSLVHSSGNTYFHWYLQKPGQSPQLLIYEVSNRFSGVPDRFSGSGSGTDFTLKISRVEAEDVGVYYCSQSTHVPFTFGQGTKLEIKR",2.44 nM,2.72 nM
"C1H2L1 (antibody, human IgG1, kappa, V domains shown) VH: EVQLVQSGAEVKKPGSSVKVSCKASGYTFSTSWMNWVRQAPGQGLEWMGQIYPGDGYTNYQGKFRGRVTITADKSTSTAYMELSSLRSEDTAVYYCAGDYEALWGQGTTVTVSS VL: DIVMTQTPLSLPVTPGEPASISCRSSQSLVHSNGNTYFHWYLQKPGQSPQLLIYEVSNRFSGVPDRFSGSGSGTDFTLKISRVEAEDVGVYYCSQSTHVPFTFGQGTKLEIKR",2.38 nM,2.61 nM
"C9H3L1 (antibody, human IgG1, kappa, V domains shown) VH: EVQLVQSGAEVKKPGASVKVSCKASGYTFTDYYMNWVRQAPGQRLEWMGVINPYQGRTTYNRKFKGRVTITVDKSASTAYMELSSLRSEDTAVYYCASLLIRPHYFDYWGQGTTVTVSS VL: DIQMTQSPSSLSASVGDRVTITCKASQNVGTNVAWYQQKPGKSPKALIYSASYRYSGVPSRFSGSGSGTDFTLTISSLQPEDVATYHCQQYNFYPYTFGQGTKLEIKR",4.27 nM,1.3 nM
"C9H2L1 (antibody, human IgG1, kappa, V domains shown) VH: EVQLVQSGAEVKKPGASVKVSCKASGYTFTDYYMNWVRQAPGQRLEWIGVINPYNVRTTYNRKFKGRATLTVDKSASTAYMELSSLRSEDTAVYYCASLLIRPHYFDYWGQGTTVTVSS VL: DIQMTQSPSSLSASVGDRVTITCKASQNVGTNVAWYQQKPGKSPKALIYSASYRYSGVPSRFSGSGSGTDFTLTISSLQPEDVATYHCQQYNFYPYTFGQGTKLEIKR",4.32 nM,1.41 nM
"C9H5L1 (antibody, human IgG1, kappa, V domains shown) VH: EVQLVQSGAEVKKPGASVKVSCKASGYTFTDYYMNWVRQAPGQRLEWMGVINPYSGRTTYNRKFKGRVTITVDKSASTAYMELSSLRSEDTAVYYCASLLIRPHYFDYWGQGTTVTVSS VL: DIQMTQSPSSLSASVGDRVTITCKASQNVGTNVAWYQQKPGKSPKALIYSASYRYSGVPSRFSGSGSGTDFTLTISSLQPEDVATYHCQQYNFYPYTFGQGTKLEIKR",4.48 nM,1.29 nM

# Now from value to binder:
EC50 (rat CGRP),EC50 (human CGRP),Binder
3.86 nM,2.54 nM,"C21H1L1 (antibody, human IgG1, kappa, V domains shown) VH: EVQLVQSGAEVKKPGASVKVSCKASGYTFTDYYMNWVRQAPGQRLEWIGDINPNNVGTNYNQKFKGRATLTVDKSASTAYMELSSLRSEDTAVYYCASIIIVPNYFDYWGQGTTVTVSS VL: DIQMTQSPSSLSASVGDRVTITCKASQNVDTNVAWFQQKPGKAPKSLIYSASYRYSGVPSRFSGSGSGTDFTLTISSLQPEDFATYYCQQYNNYPYTFGGGTKVEIKR"
5.26 nM,2.57 nM,"C21H1L2 (antibody, human IgG1, kappa, V domains shown) VH: EVQLVQSGAEVKKPGASVKVSCKASGYTFTDYYMNWVRQAPGQRLEWIGDINPNNVGTNYNQKFKGRATLTVDKSASTAYMELSSLRSEDTAVYYCASIIIVPNYFDYWGQGTTVTVSS VL: DIQMTQSPSSLSASVGDRVTITCKASQNVDTNVAWFQQKPGKSPKALIYSASYRYSGVPSRFSGSGSGTDFTLTISSLQPEDFATYYCQQYNNYPYTFGGGTKVEIKR"
7.94 nM,3.57 nM,"C21H3L1 (antibody, human IgG1, kappa, V domains shown) VH: EVQLVQSGAEVKKPGASVKVSCKASGYTFTDYYMNWVRQAPGQRLEWMGDINPNSGGTNYNQKFKGRVTITVDKSASTAYMELSSLRSEDTAVYYCASIIIVPNYFDYWGQGTTVTVSS VL: DIQMTQSPSSLSASVGDRVTITCKASQNVDTNVAWFQQKPGKAPKSLIYSASYRYSGVPSRFSGSGSGTDFTLTISSLQPEDFATYYCQQYNNYPYTFGGGTKVEIKR"
7.36 nM,2.9 nM,"C21H4L1 (antibody, human IgG1, kappa, V domains shown) VH: EVQLVQSGAEVKKPGASVKVSCKASGYTFTDYYMNWVRQAPGQRLEWIGDINPNTGGTNYNQKFKGRATLTVDKSASTAYMELSSLRSEDTAVYYCASIIIVPNYFDYWGQGTTVTVSS VL: DIQMTQSPSSLSASVGDRVTITCKASQNVDTNVAWFQQKPGKAPKSLIYSASYRYSGVPSRFSGSGSGTDFTLTISSLQPEDFATYYCQQYNNYPYTFGGGTKVEIKR"
5.68 nM,2.8 nM,"C21H4L2 (antibody, human IgG1, kappa, V domains shown) VH: EVQLVQSGAEVKKPGASVKVSCKASGYTFTDYYMNWVRQAPGQRLEWIGDINPNTGGTNYNQKFKGRATLTVDKSASTAYMELSSLRSEDTAVYYCASIIIVPNYFDYWGQGTTVTVSS VL: DIQMTQSPSSLSASVGDRVTITCKASQNVDTNVAWFQQKPGKSPKALIYSASYRYSGVPSRFSGSGSGTDFTLTISSLQPEDFATYYCQQYNNYPYTFGGGTKVEIKR"
6.45 nM,1.43 nM,"C28H4L1 (antibody, human IgG1, kappa, V domains shown) VH: EVQLVQSGAEVKKPGASVKVSCKASGYTFTDYYMNWVRQAPGQRLEWIGDINPNQGVTTYNQKFKGRATLTVDKSASTAYMELSSLRSEDTAVYYCASIIIVPDYFDYWGQGTTVTVSS VL: DIQMTQSPSSVSASVGDRVTITCKASQNVGSNVAWYQQKPGKSPKALIYSASYRYSGVPSRFSGSGSGTDFTLTISSLQPEDFATYYCQQYNSYPYTFGGGTKVEIKR"
2.72 nM,1.47 nM,"C28H7L1 (antibody, human IgG1, kappa, V domains shown) VH: EVQLVQSGAEVKKPGASVKVSCKASGYTFTDYYMNWVRQAPGQRLEWIGDINPNTGVTTYNQKFKGRATLTVDKSASTAYMELSSLRSEDTAVYYCASIIIVPDYFDYWGQGTTVTVSS VL: DIQMTQSPSSVSASVGDRVTITCKASQNVGSNVAWYQQKPGKSPKALIYSASYRYSGVPSRFSGSGSGTDFTLTISSLQPEDFATYYCQQYNSYPYTFGGGTKVEIKR"
1.97 nM,1.39 nM,"C1H3L2 (antibody, human IgG1, kappa, V domains shown) VH: EVQLVQSGAEVKKPGSSVKVSCKASGYTFSTSWMNWVRQAPGQGLEWMGQIYPGDGYTNYNVKFRGRVTITADKSTSTAYMELSSLRSEDTAVYYCAGDYEALWGQGTTVTVSS VL: DIVMTQTPLSLPVTPGEPASISCRSSQSLVHSSGNTYFHWYLQKPGQSPQLLIYEVSNRFSGVPDRFSGSGSGTDFTLKISRVEAEDVGVYYCSQSTHVPFTFGQGTKLEIKR"
5.3 nM,1.58 nM,"C9H1L1 (antibody, human IgG1, kappa, V domains shown) VH: EVQLVQSGAEVKKPGASVKVSCKASGYTFTDYYMNWVRQAPGQRLEWMGVINPYNVRTTYNRKFKGRVTITVDKSASTAYMELSSLRSEDTAVYYCASLLIRPHYFDYWGQGTTVTVSS VL: DIQMTQSPSSLSASVGDRVTITCKASQNVGTNVAWYQQKPGKSPKALIYSASYRYSGVPSRFSGSGSGTDFTLTISSLQPEDVATYHCQQYNFYPYTFGQGTKLEIKR"
4.2 nM,1.25 nM,"C9H4L1 (antibody, human IgG1, kappa, V domains shown) VH: EVQLVQSGAEVKKPGASVKVSCKASGYTFTDYYMNWVRQAPGQRLEWIGVINPYQGRTTYNRKFKGRATLTVDKSASTAYMELSSLRSEDTAVYYCASLLIRPHYFDYWGQGTTVTVSS VL: DIQMTQSPSSLSASVGDRVTITCKASQNVGTNVAWYQQKPGKSPKALIYSASYRYSGVPSRFSGSGSGTDFTLTISSLQPEDVATYHCQQYNFYPYTFGQGTKLEIKR"
3.13 nM,1.33 nM,"C9H6L1 (antibody, human IgG1, kappa, V domains shown) VH: EVQLVQSGAEVKKPGASVKVSCKASGYTFTDYYMNWVRQAPGQRLEWIGVINPYSGRTTYNRKFKGRATLTVDKSASTAYMELSSLRSEDTAVYYCASLLIRPHYFDYWGQGTTVTVSS VL: DIQMTQSPSSLSASVGDRVTITCKASQNVGTNVAWYQQKPGKSPKALIYSASYRYSGVPSRFSGSGSGTDFTLTISSLQPEDVATYHCQQYNFYPYTFGQGTKLEIKR"
